From US20110207132

Tested on: BfuCI restriction endonuclease
Experiment: cleavage_in_vitro
Details: for binding signal (signal/no-template): after 25 min
[1] = phosphorothioate 5' of GATC in probe B, JP3 cleaved greater than four times faster
[2] = phosphorothioate 5' of GATC in probe B

In the case of “AGAGTCCACCAAGCTTCAGATTAG / TCTGAAGCTTTGATC / CCCCGATCAAATTGGTGGACTCTAAAA [JP8]”, the binding signal [1] is reported as less than 0.25 fold vs JP3.

With “AGAGTCCACCAAGCTTCAGATTAG / TCTGAAGCTTTGATC / AAAAGATCAAATTGGTGGACTCTAAAA [T1/A/B junction probe (JP2)]” the binding signal (fold vs no template) (NEBuffer 4, 10 mM Mg, 30 C, 5 h) was 60.

Sequence “AGAGTCCACCAAGCTTCAGATTAG / TCTGAAGCTTTGATC / AAAAGATCAAATTGGTGGACTCTAAAA [JP4]” has a binding signal (phosphorodithioate 5' of GATC in probe B, fluorescence enhancement) of 3 fold vs JP2.

“AGAGTCCACCAAGCTTCAGATTAG / TCTGAAGCTTTGATC / TTTTGATCAAATTGGTGGACTCTAAAA [JP9]” showed a binding signal [1] of less than 0.25 fold vs JP3.

Sequence “AGAGTCCACCAAGCTTCAGATTAG / TCTGAAGCTTTGATC / TGTAACGGAAAACCGTTACAGATCATATTGGTGGACTCT [JP16]” has an activity (phosphorothioate 5' of GATC in probe B, initial rate, 30 C) of 43 nM/min.

“AGAGTCCACCAAGCTTCAGATTAG / TCTGAAGCTTTGATC / GGGGGATCAAATTGGTGGACTCTAAAA [JP7]” was tested, and the binding signal [1] was less than 0.25 fold vs JP3.

“AGAGTCCACCAAGCTTCAGATTAG / TCTGAAGCTTTGATC / TGTAACGGAAAACCGTTACAGATCAAATTGGTGGACTCT [JP12]” showed an activity (phosphorothioate 5' of GATC in probe B, average rate first 5 min, 30 C) of 39 nM/min.

In the case of “AGAGTCCACCAAGCTTCAGATTAG / TCTGAAGCTTTGATC / AAAAGATCAAATTGGTGGACTCTAAAA [JP3]”, the activity (phosphorothioate 5' of GATC in probe B, average rate first 5 min, 7-fold signal enhancement over JP2) is reported as 0.9 nM/min.

“AGAGTCCACCAAGCTTCAGATTAG / TCTGAAGCTTTGATC / TGGATCGGAAAACCGATCCAGATCATATTGGTGGACTCT [JP18]” was tested, and the activity (phosphorothioate 5' of each GATC in probe B, initial rate, NEBuffer 4, 10 mM Mg, 30 C) was 82 nM/min.

“AGAGTCCACCAAGCTTCAGATTAG / TCTGAAGCTTTGATC / AGTAACGGAAAACCGTTACTAAAAGATCATATTGGTGGACTCT [JP14]” showed a binding signal (signal/no-template) [2] of 9.

With “AGAGTCCACCAAGCTTCAGATTAG / TCTGAAGCTTTGATC / AGTAACGGAAAACCGTTACTAAAAGATCAATTTGGTGGACTCT [JP13]” the binding signal (signal/no-template) [2] was 13.5.

“AGAGTCCACCAAGCTTCAGATTAG / TCTGAAGCTTTGATC / AGTAACGGAAAACCGTTACTAAAAGATCAAATTGGTGGACTCT [JP10]” showed a binding signal (signal/no-template) [2] of 4.7.
